Assay results reported in the supplement of paper PMC9170038.

Test system: MS2 coat protein
Experiment: apparent KD of MS2 coat protein; designed switch direction (-1 OFF switch, 1 ON switch): -1; higher = weaker reporter binding
In short: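 RNA switches sharing common flanks were transcribed by stalled E. coli RNA polymerase on Illumina chips. A doubling series of SNAP-549-labelled MS2 coat protein, from 0.7 or 1.5 nM to 3 µM, was applied in Tris-HCl pH 7.5 buffer with KCl, MgCl2, BSA, DTT, tRNA and Tween-20. Each step lasted 0.8–1.5 h at the bottom of the series and 10–20 min at the top. Normalised cluster fluorescence was curve-fitted, giving apparent KD as the per-design median over clusters.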

[1] = input ligand: microRNA oligo, concentration not stated
[2] = Eterna round: R95, input ligand: microRNA oligo, concentration not stated
[3] = Eterna round: R95, input ligand: FMN 200 uM
[4] = Eterna round: R95, input ligand: none

## GAAAGGGCAGGAUAUGCAGAGAGAGAGAGAGAGAGAAAAAAACAUGAGGAUCACCCAUGUAGAAGGGCCGAAAG [salish99-ex2-06] (Eterna round: R96, puzzle: Exclusion 2)
Input ligand: FMN 200 uM
  apparent KD of MS2 coat protein: 31 nM
[1]
  apparent KD of MS2 coat protein: 27.8 nM
Input ligand: none
  apparent KD of MS2 coat protein: 34.2 nM

## CCUGUACAUGAGGAUCACCCAUGUUAGGAUAUUCAGCCCGUCGAGUAUAAGGGUUUAAGAAGAAGGGACGUGGC [Beanused] (puzzle: Exclusion 1)
[2]
  apparent KD of MS2 coat protein: 13.9 nM

## UGCAUGCUAGGAUAUACGGGACAUUAGGGUUUGUCGUGUGGACAUGAGGAUCACCCAUGUAGAAGGAGCGUGCU [Mod2 of JL-ex2-2.15 mat747 mod] (puzzle: Exclusion 2)
[2]
  apparent KD of MS2 coat protein: 43.6 nM

## UUCUUUACACGAGGAUAUCAUACAUGAGGAUCACCCAUGUUACUUUGUCUGUUAUUAUGUAUUAUUGAGAAGGCGUUUUUCUUU [JR_ExcNG2_Sub077] (Eterna round: R96, puzzle: Exclusion NG 2)
[1]
  apparent KD of MS2 coat protein: 15.8 nM

## UGUUGUCGCGCAGGAUAUGAGGAUCACCCAUAUAAGGAUAUCGAAAGAGAAGUUCUGAGGAUCACCCAGAAGGGCGGGACAACU [pwkr exNG2 2xF5 2xFMN.32] (Eterna round: R96, puzzle: Exclusion NG 2)
Input ligand: FMN 200 uM
  apparent KD of MS2 coat protein: 389 nM
[1]
  apparent KD of MS2 coat protein: 52.6 nM
Input ligand: none
  apparent KD of MS2 coat protein: 58.5 nM

## CACGUGUAAGGAUAUGACAAUGGUAUCUUCGGAUACCAUUGUCAGAAGGUACAUGAGGAUCACCCAUGUAACAC [Ex4-3: 15] (puzzle: Exclusion 4)
[2]
  apparent KD of MS2 coat protein: 17.2 nM

## CUUUGAUGAGGAUAUCGAGGUUAGUACAUGAGGAUCACCCAUGUUAUCCAGGUGUCGGAUCGAGAAGGUAUUGGAC [LRO-Ex5-18] (puzzle: Exclusion 5)
[2]
  apparent KD of MS2 coat protein: 14.8 nM

## CCCAGAUAAGGAUAUUGAAGGUUCGACAUGAGGAUCACCCAUGUUAUGUUGGAAAAGGGACAAGAAGGUAUGAAAA [salish99_ex5_r4_216] (Eterna round: R97, puzzle: Exclusion 5)
Input ligand: FMN 200 uM
  apparent KD of MS2 coat protein: 31.2 nM
Input ligand: none
  apparent KD of MS2 coat protein: 33.1 nM

## UUGUUCCAUUAUGAGAUCCACAUGAGGAUCACCCAUGUAGGAGUAACAAGCUUUGCUCGAUCUAUUUCAUGCUUCUG [Eternabot (L1) Solution 40] (Eterna round: R97, puzzle: Sensor, turn-off variant 1)
Input ligand: FMN 200 uM
  apparent KD of MS2 coat protein: 65.8 nM
Input ligand: none
  apparent KD of MS2 coat protein: 80.6 nM

## AAAUAAUAGAUAAAAUAAUACAUGAGGAUCACCCAUGUGGGAUGCUGAGGGUGAUACAGGCUUUUUGCUCGUCUUAU (puzzle: Sensor v3, turn-off variant 1)
[3]
  apparent KD of MS2 coat protein: 78.7 nM
[2]
  apparent KD of MS2 coat protein: 16.3 nM
[4]
  apparent KD of MS2 coat protein: 99.9 nM

## AAUGAUGAUGUGAGGAUAUACAUAGUUAGACCGUAGUAGAAGGCACAUGAGGAUCACCCAUGUAGAUGUAAGGU [JR_BME4_Sub002] (puzzle: Brourd's mod of Exclusion 4)
[3]
  apparent KD of MS2 coat protein: 26.3 nM
[2]
  apparent KD of MS2 coat protein: 17 nM
[4]
  apparent KD of MS2 coat protein: 17.7 nM

## UGUGUGAGACAGGAUAUGCUGGAUGAAAGGCAGGUAGAAGGGUCUACAUGAGGAUCACCCAUGUGGCCGGUUGG [Ex6 #73] (Eterna round: R97, puzzle: Exclusion 6)
Input ligand: FMN 200 uM
  apparent KD of MS2 coat protein: 20.6 nM
Input ligand: none
  apparent KD of MS2 coat protein: 20.4 nM

## GUUGUGCGAGGAUAUAUGUGAGGUUUGCCUCAACAGGUAAUACAUGAGGAUCACCCAUGUAGAAGGCGCAUGAG [S1-(23.6);S2-(22.1) [87C]] (Eterna round: R96, puzzle: Exclusion 2)
Input ligand: FMN 200 uM
  apparent KD of MS2 coat protein: 248 nM
[1]
  apparent KD of MS2 coat protein: 45 nM
Input ligand: none
  apparent KD of MS2 coat protein: 63.9 nM

## UUUAGUUCAGGAUAUGUAGUUUUAAACAUGAGGAUCACCCAUGUAGAACCUGAUCCUGCUACAGAAGGGAACAUUU [Mat - Exclusion 5 - Eli Mod - D14] (Eterna round: R97, puzzle: Exclusion 5)
Input ligand: FMN 200 uM
  apparent KD of MS2 coat protein: 32 nM
Input ligand: none
  apparent KD of MS2 coat protein: 18.2 nM

## AACUCAUGUUCAGGAUAUCGCGUUCCAAAGACAUGAGAAGGGAACAUGAGGAUCACCCAUGUACCCGGUCUCAGACCGGGCUUC [Tiriaron] (Eterna round: R96, puzzle: Exclusion NG 1)
Input ligand: FMN 200 uM
  apparent KD of MS2 coat protein: 115 nM
[1]
  apparent KD of MS2 coat protein: 41.8 nM
Input ligand: none
  apparent KD of MS2 coat protein: 64.1 nM

## ACAUGCUUAAUCUGUAUGAACAUGAGGAUCACCCAUGUAUAAGGGAAUUCUUUUGGGUUUUUUAUUGCUCGUCUUAU [JR_STOV1_Sub022] (Eterna round: R97, puzzle: Sensor, turn-off variant 1)
Input ligand: FMN 200 uM
  apparent KD of MS2 coat protein: 379 nM
Input ligand: none
  apparent KD of MS2 coat protein: 360 nM

## AUCGUGCAGCAAAGCUGUACGAGUACAUGAGGAUCACCCAUGUAGGAUAUGGUACGCAAAGCGUGCUAGAAGGAUAUGUGUAAG [Mat - Exclusion NG 3 - Mod of JL - D85] (Eterna round: R96, puzzle: Exclusion NG 3)
Input ligand: FMN 200 uM
  apparent KD of MS2 coat protein: 65.5 nM
[1]
  apparent KD of MS2 coat protein: 39.9 nM
Input ligand: none
  apparent KD of MS2 coat protein: 61.6 nM

## UAUGGUUAAGUCAGGAUAUGCACGAAGAGGUCUAUGCAGAAGGGACAUGAGGAUCACCCAUGUAAAGUCGUGUU [Ex4 #72] (Eterna round: R97, puzzle: Brourd's mod of Exclusion 4)
Input ligand: FMN 200 uM
  apparent KD of MS2 coat protein: 57.3 nM
Input ligand: none
  apparent KD of MS2 coat protein: 36.6 nM
